Assays:
[1] = biological target: H5 hemagglutinin (HA) of H5N1 influenza A virus, strain not stated (influenza A virus (H5N1), strain not stated); experiment: cross-inhibition of binding to HA; competitor: FLA3.14
[2] = biological target: H5 hemagglutinin (HA) of H5N1 influenza A virus, strain not stated (influenza A virus (H5N1), strain not stated); experiment: cross-inhibition of binding to HA; competitor: FLD20.19
[3] = biological target: H5 hemagglutinin (HA) of H5N1 influenza A virus, strain not stated (influenza A virus (H5N1), strain not stated); experiment: cross-inhibition of binding to HA; competitor: FLD194
[4] = biological target: hemagglutinin of H5N1 clade 1 strain VN/1194.04 (influenza A virus VN/1194.04 (H5N1)); experiment: cell-based or functional assay
[5] = biological target: hemagglutinin of H5N1 clade 1 strain A/Hong Kong/213/03 (influenza A virus A/Hong Kong/213/03 (H5N1)); experiment: cell-based or functional assay
[6] = biological target: hemagglutinin of A/Vietnam/1203/04 (H5N1) (influenza A virus A/Vietnam/1203/04 (H5N1)); experiment: cell-based or functional assay
[7] = biological target: hemagglutinin of A/Indonesia/5/05 (H5N1, clade 2) (influenza A virus A/Indonesia/5/05 (H5N1)); experiment: cell-based or functional assay
[8] = biological target: hemagglutinin of H5N1 clade 2.2 strain TY/TY/1/05 (influenza A virus TY/TY/1/05 (H5N1)); experiment: cell-based or functional assay
[9] = biological target: hemagglutinin of H5N1 clade 1 strain HK/491/97 (influenza A virus HK/491/97 (H5N1)); experiment: cell-based or functional assay
[10] = biological target: hemagglutinin of H5N1 clade 2.3 strain Anhui/1/05 (influenza A virus Anhui/1/05 (H5N1)); experiment: cell-based or functional assay
[11] = biological target: hemagglutinin of H5N1 clade 2.2 strain WS/Mong/244/05 (influenza A virus WS/Mong/244/05 (H5N1)); experiment: cell-based or functional assay

Binder	Inhibition of binding (%) [1]	Inhibition of binding (%) [2]	Inhibition of binding (%) [3]	IC50, neutralisation of retroviral pseudotypes [4]	IC50, neutralisation of retroviral pseudotypes [5]	IC50, neutralisation of retroviral pseudotypes [6]	IC50, neutralisation of retroviral pseudotypes [7]	Reciprocal neutralising titre of culture supernatant (reciprocal titre) [7]	IC50, neutralisation of retroviral pseudotypes [8]	Reciprocal neutralising titre of culture supernatant (reciprocal titre) [9]	IC50, neutralisation of retroviral pseudotypes [10]	IC50, neutralisation of retroviral pseudotypes [11]	Reciprocal neutralising titre of culture supernatant (reciprocal titre) [6]
FLA5.10 (antibody, V domains shown) VH: QVQLVQSGAEVKEPGSAMKVSCKASGGTFSSDAFCWVRQAPGRGLEWMGGIIPVFQTANYGPNFQGRVTISADVYTTTLYLELSGLTSEDTAVYFCARSGDGYNYYFPLWGQGTLVTVSS VL: DIQMTQSPSTLSGSVGDRVTITCRASQNIGPWLAWYQQESGKAPKLLISRASILESGVPSRFSGTGTGTEFTLTISSLQPDDFATYYCQHYNAYWGTFGQGTKVEIN	0%	100%	100%	0.026 µg/mL	0.0025 µg/mL	0.024 µg/mL							
FLD84 (antibody, V domains shown) VH: QVQLQESGPGLVKPSETLSLICAVSGASISSSYWSWIRQPPGKGLEWIGYIYYSGVTKYNPSLKSRVTLSVDTSKNHFSLKLSYVTAADTAVYYCARNLPDIAVVTAVQDATPVWFDPWGPGTLVSVSS VL: DIQLTQSPSSLSASVGDRVTITCRASQGIITYLNWYQQKPGKAPKLLIYATYSLQNGVPSRFSGSGSGTDFTLTISSLQPEDFATYYCQQSYSSLMFTFGQGTKLDIK	0%	100%	0%	0.017 µg/mL	0.014 µg/mL	0.042 µg/mL	0.03 µg/mL	102	0.032 µg/mL	40	0.118 µg/mL	0.03 µg/mL	16
FLD132 (antibody, V domains shown) VH: EVQLVQSGAELKMPGESLKISCKASGYTFTNYWIGWVRQTPGKGLEWMGIIFPPDSQTSYSPSFQGQVTFSVDNSISVAYIQWSSLKASDTAIYYCARSGIFDWSAPLVEAFDIWGQGTVVTVSS VL: DIQLTQSPSFLSASVGDGVTITCRASQDIYIYLAWYQQKPGKAPKLLIYAASTLQGGVPSRFSGSGSGTEFTLTINNLQPEDFATYFCQQLNGYPLTFGGGTKVEIK	0%	0%	52%	0.0016 µg/mL	0.0005 µg/mL	0.001 µg/mL		< 8	0.001 µg/mL	2048	1.8 µg/mL	0.001 µg/mL	1024
FLA3.14 (antibody, V domains shown) VH: EVQLVQSGAEVKKPGESLKISCQASGYSFTSRWIGWVRQMPGKGLEWVGFIYPSDSDVRYSPSFRGQVTISADKSISTAYLQWSSLKASDTAMYFCARLGGNKDYGDYLWYFDLWGRGALVTVSS VL: EIVMTQSPDTLSVSPGERATLSCRASQSVNRRLAWYQQKPGQAPRLLIHDASTRATGIPARFSGSGSGTEFTLTISSLQSEDFAVYYCQQYDNWLSFGQGTRLEIK	100%	0%	100%	0.086 µg/mL	0.033 µg/mL	0.065 µg/mL	0.012 µg/mL		0.076 µg/mL		0.172 µg/mL	0.067 µg/mL	
FLD129 (antibody, V domains shown) VH: EVQLVESGGGLVQPGRSLRLSCAASGFTFSDFWMSWVRQAPGKGLEWVANIDQDGNERFYADSVKGRFTISRDNAKNSLYLQMTSLRADDTAVYYCARDGREGYFYGSGSFYNLKGLNWGQGTLLTVSS VL: QSVLTQPPSVSAAPGQRVTISCSGTSSNIGKNYVSWYQQLPGAAPKLLIYDNDKRPSGIPDRFSGSKSGTSATLGITGLQTGDEADYYCGTWDSSLSVGMFGGGTRLTVL	0%	100%	100%	0.0012 µg/mL	0.0005 µg/mL	0.0017 µg/mL	0.678 µg/mL	< 8	0.006 µg/mL	1450	0.016 µg/mL	0.003 µg/mL	323
FLD20.19 (antibody, V domains shown) VH: QVQLVQSGAEVKKPGSSVTVSCKASGGTFSNYGISWVRQAPGQGLDWMGGIIPLFGTANYAQKFQGRVTITADESTSSSNMELSSLRSEDTAVYYCARDVHNYDFLTGYPLHLYGMDVWGQGTTVTVSS VL: DIQMTQSPSSLSASVGDRVTITCRASQSISTYLNWYQQKPGIPPKLLINVASSLQSGVPSRFSGSGSGTDFTLTISSLQPEDFASYYCQQTYSSPPTFGQGTKVEIK	0%	100%	0%	0.013 µg/mL	0.01 µg/mL	0.016 µg/mL	0.077 µg/mL	813	0.01 µg/mL	181	0.104 µg/mL	0.004 µg/mL	181
FLD127 (antibody, V domains shown) VH: QVQLVESGGGVVQPGRSLRLSCAASGFTFSSYGMHWVRQAPGKGLEWVAVIWYDGDNKYYGDSVKGRFTISRDNSKNTLFLQMNSLRAEDTAVYYCAKDTADHGDYVDLGFFDAWGQGTLVTVSS VL: DIQMTQSPSSVSASVGDRVTITCRASQDVSTWLAWYQLKPGKAPKLLIYAASSLQSGVPSRFSGSGSGTDFTLTVSSLQPEDFATYYCQQANSFPFTFGPGTKVDIK	0%	100%	0%	0.019 µg/mL	0.75 µg/mL	0.013 µg/mL		< 8		102			81
FLD122 (antibody, V domains shown) VH: QFQLVQSGPEVKKPGTSVKVSCKASGYTSTTYGISWVRQVPGQGLEWMGWINPYNGNPHYGQKFQGRVTLTRDTSTNTAYLEILSLRSDDTAVYYCARDGWGQQLVPYYFDYWGQGTLVTVSS VL: DIVMTQSPLSLPVTPGEPASISCRASQSLLHSNGYNYLDWYLQKPGQSPQLLIQLGSTRASGVPDRFSGSGSGTDFTLEISRVEAEDVGVYYCMQALQLPLAFGQGTRLEIK	65%	100%	100%	0.006 µg/mL	0.002 µg/mL	0.005 µg/mL	0.004 µg/mL	362	0.008 µg/mL	161	0.019 µg/mL	0.006 µg/mL	40
FLD93 (antibody, V domains shown) VH: WWQLVQSGAEVKKPGSSVKVSCKASGGTFSSYDISWVRQAPGQGLEWMGGIIPIYGTANYAQKFQGRVTITADESTSTAYMELSSLRSEDTAVYYCARAGGDSSGYYGALGRFFQHWGQGTLVTVSS VL: VIWMTQSPSLLSASTGDRVTISCRMSQGISSYLAWYQQKPGKAPELLIHTAYTLKSGVPSRFSGSGSGKDFTLTISGLQSEDFATYYCQQYYSFPYTFGQGTKVEIK	0%	100%	0%	0.022 µg/mL	0.011 µg/mL	0.048 µg/mL	0.059 µg/mL	406	0.013 µg/mL	20		0.011 µg/mL	40
